Data taken from publication PMC9849103 (Nature Communications, 2023).
Numbering of substitutions follows the chain as printed.

B1: B1011 (antibody, V domains shown)
VH: QVQLVQSGAEVKKPGASVKVSCKASGYTFISYYTHWVRQAPGQGLEWMGIINPSDGYTSYAQKFQGRVTMTRDTSASTVYMELSSLRSEDTAVYYCARDSSIAARVVAWGQGTLVTVSS
VL: DIQMTQSPSSLSASVGDRVTITCQASQDIYNYLNWYQQKPGKAPKLLIFDAINLETGVPSRFSGSGSGTDFTFTISSLQPEDIATYYCQQHDNLPYSFGQGTKLEIK
notes: source: 293-6E cells, transfected, purified (Protein G Sepharose)
B2: B1012 (antibody, V domains shown)
VH: B1 VH
VL: B1 VL with Y30G, I52S, T56A, G64A, T74A, T85A, N93D, K103T
notes: as for B1
B3: B1034 (antibody, V domains shown)
VH: B1 VH with A9S, Y27N, S31T, I50V, N52K, S59N, R87T, E89D, A108D
VL: B1 VL with F73L
notes: as for B1
B4: C1034 (antibody, V domains shown)
VH: QLQLQESGPGLVKPSETLSLTCTVSGGSVSSNNHYWGWIRQPPGKGLEWIGSISSSGSTHHNPSLRSRVTISVDTSKNHFSLKLNSVTATDTAVYYCARVDSSGWYTGDVFDVWGQGTMVTVSS
VL: DIQMTQSPSSLSASVGDRVTITCRASQTINNYLNWYQQKPGKPPKLLIYAAFSLHSGVPSRFSGSRSGTDFTLTISSLQPEDFATYYCQHSYSTMCSFGQGTKLEIK
notes: as for B1
B5: B1032 (antibody, V domains shown)
VH: EVQLVESGGGLVQPGRSLRLSCEASGFTFEDFAMHWVRQAPGKGLEWVSGVSWNSGTIGYGDSVKGRFIIIRDNAKNSVYLQMNSLRPEDTAFYYCVKDMATYYKDISGTYGMDVWGQGTTVTVSS
VL: SYELTQTPSVSVAPGQTARITCVGNNIGSESVHWYQQKSGRAPVLVVYDDSDRPSGIPERFSGSTSGTTATLIINRVEAGDEAGYYCQVWDASSDHVVFGGGTKLTVL
notes: as for B1
B6: B1030 (antibody, V domains shown)
VH: QVQLVQSGAEVKKPGASVRVSCKASGYTFTSYYMHWVRQAPGQGLEWMGIINPSDGGASYAQKFQGRVTMTSDTSTSTVYMELSSLRSEDTAVYYCARALRHHSSGWYSALDFQHWGQGTLVTVSS
VL: not shown
notes: as for B1
B7: B2006 (antibody, V domains shown)
VH: EVQLVQSGAEVKKPGESLKISCKGFGSSFTNYWIGWVRQMPGKGLEWMGSVYAGDSDTRYSPSFQGQVTVSADKSITTAYLQWTSLKASDTAMYFCARASQGNYFDFWGQGTLVTVSS
VL: DIQMTQSPSTLSASVGDRVTITCRASQSISRWLAWYQQKPGKAPKLLIYDASILESGVPSRFSGSGSGTDFTLTISSLQPDDYATYYCQQFYSNLYTFGQGTKLEIK
notes: as for B1
B8: C2606 (antibody, V domains shown)
VH: QVQLVQSGAEVKKPGSSVKVSCKASGDTFRSYAISWVRQAPGQGLEWMGRIIPMLGITTYEQKYQGRLKIIADKSTSTAYMELSSLRSEDTAVYFCARDGVGATEPYYYDYWGQGTLVTVSS
VL: QSVLTQPASVSGSPGQSIIISCTGTSSDVGKYDFVSWYQQHPGKAPKLMIYDVSKRPSGVSDRFSGSKSGNTASLTISGLQAEDEADYHCASYTSDSSYLVFGGGTKLTVL
notes: as for B1
B9: C2488 (antibody, V domains shown)
VH: QVQLVESGGGVVQPGRSLRLSCAASGFTFSTHGMHWVRQAPGKGLEWMAVIYFDGSNKYYADSVKGRFAISRDNSKNTLFLQMNSLRADDTAVYHCATNSAGYGDSYETFDIWGQGTMVSVSS
VL: EIVMTQSPATLSVSPGERATLSCRASHSVGTNLAWYQQKPGQAPRLLIYGAFTRAAGISARFSGSGSGTEFTLTISSLQSEDLAVYYCQQYENWPPYTFGQGTKLEIK
notes: as for B1
B10: B1002 (antibody, V domains shown)
VH: QVQLVQSGAEVKKPGSSVKVTCRASGGTFSNLAISWVRQAPGQGLEWMGSIIPMFTISNYAQKLKGRVTITADKSTSTAYMELSSLRSGDTAVYFCASLGSNITVVRGAPITDHHFHYWGQGTLVTVSS
VL: QSALTQPASVSGSPGQSVTISCTGTSSDVGTYNLVSWYQQHPGKAPKLMIYEVSKRPSGVSNRFSGSKSGNTASLTISGLQAEDEADYYCCSYAASSTTHWVFGGGTKLAV
notes: as for B1
B11: C2655 (antibody, V domains shown)
VH: QVQLVQSGAEVKKPGSSVKVSCKASGGTFNSYAISWVRQAPGQGLEWMGGIIHVLGTANYAQRFQGRVTITADESTSTVYMELSSLRSEDTAVYYCARVGAPLGRADSGYDFYYYGMDVWGQGTTVTVSS
VL: not shown
notes: as for B1
B12: B1037 (antibody, V domains shown)
VH: QVQLVQSGAEVKKPGSSVKVSCKASGDTFISYAITWVRQAPGQGLEWMGRIIPILGVADYAPKFQGRVTITADKSTSTAYMELSSLRSEDTAVFYCASWRGREYNGYDWTGPTRGFDSWGQGTLVTVSS
VL: not shown
notes: as for B1
B13: B2058 (antibody, V domains shown)
VH: EVQLVESGGGLIQPGGSLRLSCAASGLTVSSNYMSWVRQAPGKGLEWVSVIYPGGSTFYADSVKGRFTISRDNSKNTLYLQLNSLRADDTAVYFCARGDGYTDYYYGLDVWGQGTTVTVSS
VL: DIQLTQSPSSLSASVGDRVTITCRASQSISSYLNWYQQKPGKAPKLLIYAASSLQSGVPSRFSGSGSGTDFTLTISSLQPEDFATYYCQQRGFGQGTKVEIK
notes: as for B1
B14: C3102 (antibody, V domains shown)
VH: QVQLVQSGAEVKKPGSSVKVSCKASGGTFRRYAISWVRQAPGQGLEWMGGIIPIAGAADYAQKFQARVTITADESTSTAYLELSSLRSEDTAVYYCAREISYCSGAPCYAGYYDYGMDVWGQGTTVTVSS
VL: QSVLTQPPSASGTPGQRVTISCSGNSSNIGSNSVNWYQQLPGTAPKLLIKSTNQRPSGVPDRFSGSKSGTSASLAISGLQSEDEADYYCAAWEDVLNAVVFGGGTMLTV
notes: as for B1
B15: B1026 (antibody, V domains shown)
VH: QMQLVQSGPEIKKPGTSVKVSCKASGFTFSNSAVQWVRQARGQRLEWIGWIVVGSGDPNYAQKFQERVTLTRDMSTSTAYMELSSLRSEDTAVYYCATNHCSRTICSDGFDIWGQGTVVTVSS
VL: EIVLTQSPVSLSLSPGERATLSCRASQTVRSSYFVWYQQKLGQAPRLLIYSASSRAAGIPDRFSGSGSGTDFTLTISRLEPEDFAVYYCQQYGSSPWTFGQGTKVEIK
notes: as for B1
B16: B2064 (antibody, V domains shown)
VH: QVQLVQSGAEVKKPGSSVNVSCKASGGTLNIYTFSWVRQAPGQGLEWVGTIVPLVGKANYPHKFQGRVTITADKSTSTVNMELSSLRSEDTAVYYCASEVLDNLRDGYNFWGQGTLVTVSS
VL: DIQMTQSPSSLSASVGDRVTITCRASQSVSSYLNWYQQKPGKAPKLLIYAVSSLQSGVPSRFSGSGSGTDFTLTISSLQPEDFATYYCQQTYNTLTFGGGTKVEIK
notes: as for B1
B17: B2014 (antibody, V domains shown)
VH: QVQLVQSGAELKRPGASVKVSCKASGYTFSDYHMNWVRQAPGQGLEWMGIINPSGGGASYPQKFQGRVTMTRDTSTSTVFMQLNSLTYEDTAVYYCARGTPPSRGWYGGFDNWGQGTLVTVSS
VL: QSVLTQPPSVSGAPGQRITISCTGSTSNIGAGYDVQWYQQLPGTAPKLLIFDNNNRPSGVPDRFSGSKSGTSASLAITGLQAEDEADYYCQSFDSTLSGSTFVFGPGTKVTVL
notes: as for B1

The binders below were run against WT RBD (SARS-CoV-2 Wuhan-Hu-1 spike receptor binding domain) (SARS-CoV-2 (Wuhan-Hu-1), UniProt P0DTC2) (assay: BLI). Conditions: both partners purified.
With B1 the Kd was 0.893 nM.
B2 gave a Kd of 0.572 nM.
In the case of B3, the Kd is reported as 0.734 nM.
With B4 the Kd was 1.98 nM.
For B5, the Kd was 0.52 nM.
For B6, the Kd was 5.06 nM.
B7 was tested, and the Kd was 0.582 nM.
Work on B8 yielded a Kd of 0.743 nM.
Work on B9 yielded a Kd of 8.95 nM.
With B10 the Kd was 0.732 nM.
Binder B11 has a Kd of 1.34 nM.
B12 showed a Kd of 3.21 nM.
For B13, the Kd was 1.02 nM.
In the case of B14, the Kd is reported as 0.639 nM.
For B15, the Kd was 12 nM.
Work on B16 yielded a Kd of 0.866 nM.
In the case of B17, the Kd is reported as 1.24 nM.
